According to US20230140293A1:

Assays:
Test in all cases: cell-based or functional assay
[1] = target: CH0505TF.G458Y Env, Env-pseudotyped virus produced in 293S GnTI- cells (Man5-enriched) (HIV-1)
[2] = target: CH0505TF Env, Env-pseudotyped virus produced in 293T cells (HIV-1)
[3] = target: CH0505TF Env, Env-pseudotyped virus produced in 293S GnTI- cells (Man5-enriched) (HIV-1)
[4] = target: HIV-1 426c.TM (N276D/N460D/N463D) Env on Env-pseudotyped virus produced in 293T cells (HIV-1)
[5] = target: CH0505TF.gly3.461 Env, Env-pseudotyped virus produced in 293T cells (HIV-1)
[6] = target: CH0505TF.gly4 Env, Env-pseudotyped virus produced in 293T cells (HIV-1)
[7] = target: HIV-1 clade C strain 426c Env on Env-pseudotyped virus produced in 293T cells (HIV-1)
[8] = target: HIV-1 Env 426c.SM (N276D), Env-pseudotyped virus produced in 293S GnTI- cells (Man5-enriched) (HIV-1 clade C strain 426c)
[9] = target: HIV-1 Env 426c, Env-pseudotyped virus produced in 293S GnTI- cells (Man5-enriched) (HIV-1 clade C strain 426c)
[10] = target: HIV-1 Env 426c.TM4 (S278R.G471S.N460D.N463D), Env-pseudotyped virus produced in 293S GnTI- cells (Man5-enriched) (HIV-1 clade C strain 426c)
[11] = target: CH0505TF.gly3.197 Env, Env-pseudotyped virus produced in 293T cells (HIV-1)
[12] = target: CH0505TF.gly3.197 Env, Env-pseudotyped virus produced in 293S GnTI- cells (Man5-enriched) (HIV-1)
[13] = target: HIV-1 Env 426c.TM (N276D.N460D.N463D), Env-pseudotyped virus produced in 293T cells (HIV-1 clade C strain 426c)
[14] = target: HIV-1 426c.SM (N276D) Env on Env-pseudotyped virus produced in 293T cells (HIV-1)
[15] = target: HIV-1 Env 426c, Env-pseudotyped virus produced in 293T cells (HIV-1 clade C strain 426c)
[16] = target: CH0505TF.gly3.276 Env, Env-pseudotyped virus produced in 293S GnTI- cells (Man5-enriched) (HIV-1)
[17] = target: HIV-1 426c.TM (N276D/N460D/N463D) Env on Env-pseudotyped virus produced in 293s/GnTI-/- cells (Man5-enrichment) (HIV-1)
[18] = target: CH0505TF.gly4 Env, Env-pseudotyped virus produced in 293S GnTI- cells (Man5-enriched) (HIV-1)
[19] = target: CH0505TF.gly3.276 Env, Env-pseudotyped virus produced in 293T cells (HIV-1)
[20] = target: HIV-1 426c.SM (N276D) Env on Env-pseudotyped virus produced in 293s/GnTI-/- cells (Man5-enrichment) (HIV-1)
[21] = target: CH0505.w4.3 Env, Env-pseudotyped virus produced in 293T cells (HIV-1)
[22] = target: HIV-1 Env 426c.TM4 (S278R.G471S.N460D.N463D), Env-pseudotyped virus produced in 293T cells (HIV-1 clade C strain 426c)
[23] = target: HIV-1 Env 426c.DM (N460D.N463D), Env-pseudotyped virus produced in 293T cells (HIV-1 clade C strain 426c)
[24] = target: CH0505TF.G458Y Env, Env-pseudotyped virus produced in 293T cells (HIV-1)
[25] = target: HIV-1 clade C strain 426c Env on Env-pseudotyped virus produced in 293s/GnTI-/- cells (Man5-enrichment) (HIV-1)
[26] = target: HIV-1 426c.DM (N460D/N463D) Env on Env-pseudotyped virus produced in 293s/GnTI-/- cells (Man5-enrichment) (HIV-1)
[27] = target: HIV-1 Env 426c.TM (N276D.N460D.N463D), Env-pseudotyped virus produced in 293S GnTI- cells (Man5-enriched) (HIV-1 clade C strain 426c)
[28] = target: HIV-1 426c.DM (N460D/N463D) Env on Env-pseudotyped virus produced in 293T cells (HIV-1)
[29] = target: CH0505TF.gly3.461 Env, Env-pseudotyped virus produced in 293S GnTI- cells (Man5-enriched) (HIV-1)
[30] = target: HIV-1 Env 426c.DM (N460D.N463D), Env-pseudotyped virus produced in 293S GnTI- cells (Man5-enriched) (HIV-1 clade C strain 426c)
[31] = target: HIV-1 Env 426c.SM (N276D), Env-pseudotyped virus produced in 293T cells (HIV-1 clade C strain 426c)

Substance: 2F5 (antibody)
- IC50 (µg/ml) in TZM-bl [1]: > 25 µg/mL
- IC50 (µg/ml) in TZM-bl [2]: > 25 µg/mL
- IC50 (µg/ml) in TZM-bl [3]: > 25 µg/mL
- ID50/IC50 in TZM-bl [4]: > 25 µg/mL
- IC50 (µg/ml) in TZM-bl [5]: > 25 µg/mL
- IC50 (µg/ml) in TZM-bl [6]: > 25 µg/mL
- ID50/IC50 in TZM-bl [7]: > 25 µg/mL
- IC50 (µg/ml) in TZM-bl [8]: > 25 µg/mL
- IC50 (µg/ml) in TZM-bl [9]: > 25 µg/mL
- IC50 (µg/ml) in TZM-bl [10]: > 25 µg/mL
- IC50 (µg/ml) in TZM-bl [11]: > 25 µg/mL
- IC50 (µg/ml) in TZM-bl [12]: > 25 µg/mL
- IC50 (µg/ml) in TZM-bl [13]: > 25 µg/mL
- ID50/IC50 in TZM-bl [14]: > 25 µg/mL
- IC50 (µg/ml) in TZM-bl [15]: > 25 µg/mL
- IC50 (µg/ml) in TZM-bl [16]: > 25 µg/mL
- ID50/IC50 in TZM-bl [17]: > 25 µg/mL
- IC50 (µg/ml) in TZM-bl [18]: > 25 µg/mL
- IC50 (µg/ml) in TZM-bl [19]: > 25 µg/mL
- ID50/IC50 in TZM-bl [20]: > 25 µg/mL
- IC50 (µg/ml) in TZM-bl [21]: > 25 µg/mL
- IC50 (µg/ml) in TZM-bl [22]: > 25 µg/mL
- IC50 (µg/ml) in TZM-bl [23]: > 25 µg/mL
- IC50 (µg/ml) in TZM-bl [24]: > 25 µg/mL
- ID50/IC50 in TZM-bl [25]: > 25 µg/mL
- ID50/IC50 in TZM-bl [26]: > 25 µg/mL
- IC50 (µg/ml) in TZM-bl [27]: > 25 µg/mL
- ID50/IC50 in TZM-bl [28]: > 25 µg/mL
- IC50 (µg/ml) in TZM-bl [29]: > 25 µg/mL
- IC50 (µg/ml) in TZM-bl [30]: > 25 µg/mL
- IC50 (µg/ml) in TZM-bl [31]: > 25 µg/mL

Substance: 2G12 (antibody)
- IC50 (µg/ml) in TZM-bl [1]: > 25 µg/mL
- IC50 (µg/ml) in TZM-bl [2]: > 25 µg/mL
- IC50 (µg/ml) in TZM-bl [3]: > 25 µg/mL
- ID50/IC50 in TZM-bl [4]: > 25 µg/mL
- IC50 (µg/ml) in TZM-bl [5]: > 25 µg/mL
- IC50 (µg/ml) in TZM-bl [6]: > 25 µg/mL
- ID50/IC50 in TZM-bl [7]: > 25 µg/mL
- IC50 (µg/ml) in TZM-bl [8]: > 25 µg/mL
- IC50 (µg/ml) in TZM-bl [9]: > 25 µg/mL
- IC50 (µg/ml) in TZM-bl [10]: > 25 µg/mL
- IC50 (µg/ml) in TZM-bl [11]: > 25 µg/mL
- IC50 (µg/ml) in TZM-bl [12]: > 25 µg/mL
- IC50 (µg/ml) in TZM-bl [13]: > 25 µg/mL
- ID50/IC50 in TZM-bl [14]: > 25 µg/mL
- IC50 (µg/ml) in TZM-bl [15]: > 25 µg/mL
- IC50 (µg/ml) in TZM-bl [16]: > 25 µg/mL
- ID50/IC50 in TZM-bl [17]: > 25 µg/mL
- IC50 (µg/ml) in TZM-bl [18]: > 25 µg/mL
- IC50 (µg/ml) in TZM-bl [19]: > 25 µg/mL
- ID50/IC50 in TZM-bl [20]: > 25 µg/mL
- IC50 (µg/ml) in TZM-bl [21]: > 50 µg/mL
- IC50 (µg/ml) in TZM-bl [22]: > 25 µg/mL
- IC50 (µg/ml) in TZM-bl [23]: > 25 µg/mL
- IC50 (µg/ml) in TZM-bl [24]: > 25 µg/mL
- ID50/IC50 in TZM-bl [25]: > 25 µg/mL
- ID50/IC50 in TZM-bl [26]: > 25 µg/mL
- IC50 (µg/ml) in TZM-bl [27]: > 25 µg/mL
- ID50/IC50 in TZM-bl [28]: > 25 µg/mL
- IC50 (µg/ml) in TZM-bl [29]: > 25 µg/mL
- IC50 (µg/ml) in TZM-bl [30]: > 25 µg/mL
- IC50 (µg/ml) in TZM-bl [31]: > 25 µg/mL
